These results are taken from patent US20260125451A1.

Sequences and labels used below:
B1: Telitacicept (RCT-18) (Fc fusion)
chain: SRVDQEERFPQGLWTGVAMRSCPEEQYWDPLLGTCMSCKTICNHQSQRTCAAFCRSLSCRKEQGKFYDHLLRDCISCASICGQHPKQCAYFCENKLRSPVNLPPELDKTHTCPPCPAPEAEGAPSVFLFPPKPKDTLMISRTPEVTCVVVDVSHEDPEVKFNWYVDGVEVHNAKTKPREEQYNSTYRVVSVLTVLHQDWLNGKEYKCKVSNKALPSSIEKTISKAKGQPREPQVYTLPPSRDELTKNQVSLTCLVKGFYPSDIAVEWESNGQPENNYKTTPPVLDSDGSFFLYSKLTVDKSRWQQGNVFSCSVMHEALHNHYTQKSLSLSPGK
B2: B746201 (protein)
heavy: EVQLVQSGAEVKKPGESLKISCKGSGYIFTNYWIAWVRQMPGKGLESMGIIYPGDSDIRYSPSFQGQVTISADKSITTAYLQWSSLKASDTAMYYCARHDIEGFDYWGRGTLVTVSSASTKGPSVFPLAPSSKSTSGGTAALGCLVKDYFPEPVTVSWNSGALTSGVHTFPAVLQSSGLYSLSSVVTVPSSSLGTQTYICNVNHKPSNTKVDKRVEPKSCDKTHTCPPCPAPEFEGGPSVFLFPPKPKDTLMISRTPEVTCVVVDVSHEDPEVKFNWYVDGVEVHNAKTKPREEQYNSTYRVVSVLTVLHQDWLNGKEYKCKVSNKALPASIEKTISKAKGQPREPQVYTLPPSRDELTKNQVSLTCLVKGFYPSDIAVEWESNGQPENNYKTTPPVLDSDGSFFLYSKLTVDKSRWQQGNVFSCSVMHEALHNHYTQKSLSLSPGKGGGGSGGGGSGGGGSMLQMAGQCSQNEYFDSLLHACIPCQLRCSSNTPPLTCQRYCSTSCREEQGEFYDHLLRDCISCASICGQHPKQCAAFCE
light: EIVLTQSPGTLSLSPGERATLSCRASQSVSSSFFAWYQQKPGQAPRLLIYGASSRATGIPDRLSGSGSGTDFTLTITRLEPEDFAVYYCQQYDSSAITFGQGTRLEIKRTVAAPSVFIFPPSDEQLKSGTASVVCLLNNFYPREAKVQWKVDNALQSGNSQESVTEQDSKDSTYSLSSTLTLSKADYEKHKVYACEVTHQGLSSPVTKSFNRGEC
B3: B805201 (protein)
heavy: EVQLVQSGAEVKKPGESLKISCKGSGYIFTNYWIAWVRQMPGKGLESMGIIYPGDSDIRYSPSFQGQVTISADKSITTAYLQWSSLKASDTAMYYCARHDIEGFDYWGRGTLVTVSSASTKGPSVFPLAPSSKSTSGGTAALGCLVKDYFPEPVTVSWNSGALTSGVHTFPAVLQSSGLYSLSSVVTVPSSSLGTQTYICNVNHKPSNTKVDKRVEPKSCDKTHTCPPCPAPEFEGGPSVFLFPPKPKDTLMISRTPEVTCVVVDVSHEDPEVKFNWYVDGVEVHNAKTKPREEQYNSTYRVVSVLTVLHQDWLNGKEYKCKVSNKALPASIEKTISKAKGQPREPQVYTLPPSRDELTKNQVSLTCLVKGFYPSDIAVEWESNGQPENNYKTTPPVLDSDGSFFLYSKLTVDKSRWQQGNVFSCSVMHEALHNHYTQKSLSLSPGKGGGGSGGGGSGGGGSSTSCREEQGEFYDHLLRDCISCASICGQHPKQCAAFCE
light: B2 light
B4: B637302 (protein)
heavy: EVQLVQSGAEVKKPGESLKISCKGSGYIFTNYWIAWVRQMPGKGLESMGIIYPGDSDIRYSPSFQGQVTISADKSITTAYLQWSSLKASDTAMYYCARHDIEGFDYWGRGTLVTVSSASTKGPSVFPLAPSSKSTSGGTAALGCLVKDYFPEPVTVSWNSGALTSGVHTFPAVLQSSGLYSLSSVVTVPSSSLGTQTYICNVNHKPSNTKVDKRVEPKSCDKTHTCPPCPAPEFEGGPSVFLFPPKPKDTLMISRTPEVTCVVVDVSHEDPEVKFNWYVDGVEVHNAKTKPREEQYNSTYRVVSVLTVLHQDWLNGKEYKCKVSNKALPASIEKTISKAKGQPREPQVYTLPPSRDELTKNQVSLTCLVKGFYPSDIAVEWESNGQPENNYKTTPPVLDSDGSFFLYSKLTVDKSRWQQGNVFSCSVMHEALHNHYTQKSLSLSPGK
light: EIVLTQSPGTLSLSPGERATLSCRASQSVSSSFFAWYQQKPGQAPRLLIYGASSRATGIPDRLSGSGSGTDFTLTITRLEPEDFAVYYCQQYDSSAITFGQGTRLEIKRTVAAPSVFIFPPSDEQLKSGTASVVCLLNNFYPREAKVQWKVDNALQSGNSQESVTEQDSKDSTYSLSSTLTLSKADYEKHKVYACEVTHQGLSSPVTKSFNRGECGGGGSGGGGSMLQMAGQCSQNEYFDSLLHACIPCQLRCSSNTPPLTCQRYCSTSCREEQGEFYDHLLRDCISCASICGQHPKQCAAFCE
B5: B606401 (protein)
heavy: B4 heavy
light: EIVLTQSPGTLSLSPGERATLSCRASQSVSSSFFAWYQQKPGQAPRLLIYGASSRATGIPDRLSGSGSGTDFTLTITRLEPEDFAVYYCQQYDSSAITFGQGTRLEIKRTVAAPSVFIFPPSDEQLKSGTASVVCLLNNFYPREAKVQWKVDNALQSGNSQESVTEQDSKDSTYSLSSTLTLSKADYEKHKVYACEVTHQGLSSPVTKSFNRGECGGGGSGGGGSSTSCREEQGEFYDHLLRDCISCASICGQHPKQCAAFCE

The experiment has as its target BAFF and ARPIL. Put plainly: cell-based or functional assay.
Take B1: the CD27+ CD38+ plasma cell count, mean, BAFF + APRIL-induced, drug at 10 nM stood at 2450 count; the CD27+ CD38+ plasma cell count, mean, BAFF + APRIL-induced, drug at 100 nM was found to be 510 count; the CD27+ CD38+ plasma cell count, mean, BAFF + APRIL-induced, drug at 1000 nM came out at 230 count.

Take B2: the CD27+ CD38+ plasma cell count, mean, BAFF + APRIL-induced, drug at 10 nM worked out at 575 count; the CD27+ CD38+ plasma cell count, mean, BAFF + APRIL-induced, drug at 100 nM was determined as 520 count; the CD27+ CD38+ plasma cell count, mean, BAFF + APRIL-induced, drug at 1000 nM amounted to 410 count.

As for B3, the CD27+ CD38+ plasma cell count, mean, BAFF + APRIL-induced, drug at 10 nM is 434 count; the CD27+ CD38+ plasma cell count, mean, BAFF + APRIL-induced, drug at 100 nM worked out at 426 count; the CD27+ CD38+ plasma cell count, mean, BAFF + APRIL-induced, drug at 1000 nM came to 438 count.

Consider B4, for which the CD27+ CD38+ plasma cell count, mean, BAFF + APRIL-induced, drug at 10 nM is 563 count; the CD27+ CD38+ plasma cell count, mean, BAFF + APRIL-induced, drug at 100 nM was 482 count; the CD27+ CD38+ plasma cell count, mean, BAFF + APRIL-induced, drug at 1000 nM worked out at 137 count.

As for B5, the CD27+ CD38+ plasma cell count, mean, BAFF + APRIL-induced, drug at 10 nM was 654 count; the CD27+ CD38+ plasma cell count, mean, BAFF + APRIL-induced, drug at 100 nM was found to be 549 count; the CD27+ CD38+ plasma cell count, mean, BAFF + APRIL-induced, drug at 1000 nM was 426 count.
